Results reported in US20240228986A1, “ENGINEERED CELLS, ENZYMES, AND METHODS FOR PRODUCING CANNABINOIDS” (priority 2021, published 2024).

Key:
Type in all cases: cell-based, Yarrowia
olivetolic acid [1] = assay: GPS-APT fusions, OA feed in vivo assay (Example 11)
Protocol: As described below, plasmids pCL-SE-0406, pCL-SE-0664, pCL-SE-0663, pCL-SE-0662, pCL-SE-0380 (MPT4), pCL-SE-0337.MPT21, pCL-SE-0337.MPT26, and pCL-SE-0337.MPT31 were transformed into strain sCL-SE-0128. Multiple colonies per transformation were precultured for 48 h in YNB containing glucose (2%), casamino acids (0.5%), and MES (100 mM pH 6.5). Pre-culture was used to inoculate assay medium comprised of YNB containing glucose (2%), casamino acids (0.5%), MES (100 mM pH 6.5), and olivetolic acid (2 mM). Cultures were quenched with equal volume of ethanol after 48 h total growth and assayed for CBGA and FCBGA. Averages and standard deviations were calculated from replicates.
Soluble prenyl transferase APT73.77 was fused with GPS1.1 at the N- or C-terminus with different linkers creating the plasmids shown in Table 14. These fusion proteins were expressed and screened as described in Example 8 (olivetolic acid feed)
(§1) Overnight YPD (10 g/L yeast extract, 20 g/L peptone, 2% dextrose) cultures were inoculated from glycerol stocks of the appropriate strain and grown at 30° C. with 250 rpm shaking. Once cultures had reached an OD600 of 4-6, cultures were centrifuged at 500×g for 5 min, supernatants were discarded, and cell pellets were resuspended in equal volume of water. Resuspended cells were centrifuged at 500×g for 5 min, supernatants were discarded, and cells were resuspended in a volume (75 μL×OD×Vculture) of transformation cocktail (45% PEG-400, 0.1 M LiAc, 0.1 M DTT, and 25 ug/100 μL SS Salmon Sperm DNA). For each transformation, >1 μg of plasmid DNA was added to 55 μL cells/transformation cocktail and vortexed for 2 s. Transformations were incubated at 39° C. for 1 h with 250 rpm shaking. Transformations were resuspended in 750 μL YPD with 1 M sorbitol and recovered at 30° C. overnight with 250 rpm shaking. The next day, transformations were centrifuged at 500×g for 5 min, supernatants were discarded, and cell pellets were resuspended in 750 YPD. Resuspended transformations were plated on YPD with appropriate selection or YNBD (6.71 g/L yeast nitrogen base+nitrogen, 0.5% casamino acids, 2% dextrose) agar plates and grown at 30° C. for 2 days. Individual colonies were patched onto YPD plates with appropriate selection or YNBD plates and grown at 30° C. overnight. Patches were used to inoculate 0.5 mL YPD with appropriate selection or YNBD precultures in 96 w blocks and grown at 30° C. for 24-48 h with 1000 rpm shaking. For assays, 0.5 mL YPD with appropriate selection or YNBD cultures containing substrate were inoculated with 2 μL from precultures and grown at 30° C. for 2-4 days with 1000 rpm shaking with 2% glucose added every 24 h. Assay cultures were quenched by addition of 0.5 mL ethanol with 0.2% formic acid and 0.5 mg/mL pentyl-benzoic acid. Precipitates were pelleted by centrifuging at 4600×g for 10 min and then 200 μL was transferred to fresh plates, sealed, and analyzed via HPLC.
(§2) All samples were quenched with equal volume of EtOH containing 0.2 mg/mL internal standard (3,5-Diisopropyl-2-hydroxybenzoic acid CAS #2215-21-6) centrifuged, and clarified solutions were analyzed by HPLC-MS
(§3) • Column: 2.1×50 mm COSMOCORE PBr (Nacalai USA, Inc.) • Mobile Phase: A; 0.1% formic acid in water, B; 0.1% formic acid in acetonitrile • Flow: 0.45 mL/min • Temp: % 50 Celsius • Gradient: 20%B at 0 min, 70%B at 2.3 min, 89% B at 4.2 min, 20% B at 4.3 min, 20%B at 6 min

olivetolic acid [2] = assay: Linkers for GPS1.1-MPT4 fusions, in vivo assay (Example 6); details: 1 mM olivetolic acid, 72 h quench; for CBGA / FCBGA: 2% glycerol, strain sCL-SE-0128; for CBGA/FCBGA: product ratio
Protocol: As described in detail below, plasmids pCL-SE-0380 (MPT4), pCL-SE-0406, pCL-SE-0435, and pCL-SE-0437 were transformed into strain sCL-SE-0128. Four separate colonies per transformation were precultured for 24 h in YNB containing glycerol (2%), casamino acids (0.5%), and MES (100 mM pH 6.5). Pre-culture was used to inoculate assay medium comprised of YNB containing glycerol (2%), casamino acids (0.5%), MES (100 mM pH 6.5), and olivetolic acid (1 mM). Cultures were quenched after 72 h total growth by mixing with equal volume of EtOH. Enzymes produced CBGA and FCBGA. Averages and standard deviations were calculated from replicates.
However, sCL-SE-0128 expresses HMGR and GPS1.1 to increase intracellular GPP levels for prenylation of OA to CBGA. The plasmids that were transformed contain either a gene expressing a prenyl-transferase (pCL-SE-0380 (MPT4)) or a gene expressing a fusion between GPS1.1 and a prenyl-transferase with different linker sequences.
as §1, §2, §3

olivetolic acid [3] = assay: GPS1.1 fusions of MPT21 mutants, OA feed (Example 8, Table 10); details: in words; mutagenesis of MPT21, tested as GPS1.1-F11 fusions
Protocol: as §1, §2, §3

[4] = olivetolic acid feed as in Example 8, 48 h quench, strain sCL-SE-0128

B1: APT73.77-F18-GPS1.1: fusion protein, SEQ ID NO: 66 (protein)
chain: MDEVYAAVEQTSRLLDVPCSPDRFEPVWKAFGDQLPDSHLVFSMAAGEAHRGELDFDFSLRPEGADPYTTALEHGFIEPTDHPVGSVLAEVGKRFAIASYGVEYGVVGGFKKSYAFFPLDDFPPLAQFAEVPSVPPCLAGHVETLTRLGFDDKVSIIGVNYRKNTLNVYLAASAVDTGDKLALLRAFGYPEPDARVRQFIERSFRLYPTFNWDSSAAERICFAVHTQQPGELPAPHDEPTEAFARQVPHVYEGGREFVSGVALAPSGASYYKLAALYQKARRCLDGGGGSLEDPAVWEAGKVVAKGVGTADITATTSNGLIASSEEADNAATSMSKAKFESVFPRISEELVQLLRDEGLPQDAVQWFSDSLQYNCVGGKLNRGLSVVDTYQLLTGKKELDDEEYYRLALLGWLIELLQAFWLVSDDIMDESKTRRGQPCWYLKPKVGMIAIWDAFMLESGIYILLKKHFRQEKYYIDLVELFHDISFKTELGQLVDLLTAPEDEVDLNRFSLDKHSFIVRYKTAYYSFYLPVVLAMYVAGITNPKDLQQAMDVLIPLGEYFQVQDDYLDNFGDPEFIGKIGTDIQDNKCSWLVNKALQKATPEQRQILEDNYGVKDKSKELVIKKLYDDMKIEQDYLDYEEEVVGDIKKKIEQVDESRGFKKEVLNAFLAKIYKRQK
modifications: APT73.77-F18-GPS1.1, mutant soluble aromatic prenyltransferase, geranyl diphosphate synthase fusion protein
Olivetolic acid [1]; [4]
  CBGA: 382 ± 26 µM
  FCBGA: 149 ± 4 µM
Olivetolic acid [1]; olivetolic acid feed, 48 h quench, product ratio
  CBGA/FCBG: 2.6

B2: GPS1.1-F5-MPT4: fusion protein, SEQ ID NO: 17 (protein)
chain: MSKAKFESVFPRISEELVQLLRDEGLPQDAVQWFSDSLQYNCVGGKLNRGLSVVDTYQLLTGKKELDDEEYYRLALLGWLIELLQAFWLVSDDIMDESKTRRGQPCWYLKPKVGMIAIWDAFMLESGIYILLKKHFRQEKYYIDLVELFHDISFKTELGQLVDLLTAPEDEVDLNRFSLDKHSFIVRYKTAYYSFYLPVVLAMYVAGITNPKDLQQAMDVLIPLGEYFQVQDDYLDNFGDPEFIGKIGTDIQDNKCSWLVNKALQKATPEQRQILEDNYGVKDKSKELVIKKLYDDMKIEQDYLDYEEEVVGDIKKKIEQVDESRGFKKEVLNAFLAKIYKRQKGGGGSGGGGSGGGGSMSDNSIATKILNFGHTCWKLQRPYVVKGMISIACGLFGRELFNNRHLFSWGLMWKAFFALVPILSFNFFAAIMNQIYDVDIDRINKPDLPLVSGEMSIETAWILSIIVALTGLIVTIKLKSAPLFVFIYIFGIFAGFAYSVPPIRWKQYPFTNFLITISSHVGLAFTSYSATTSALGLPFVWRPAFSFIIAFMTVMGMTIAFAKDISDIEGDAKYGVSTVATKLGARNMTFVVSGVLLLNYLVSISIGIIWPQVFKSNIMILSHAILAFCLIFQTRELALANYASAPSRQFFEFIWLLYYAEYFVYVFI
modifications: GPS1.1-F5-MPT4, geranyl diphosphate synthase, membrane-bound prenyltransferase fusion protein
Olivetolic acid [2]
  CBGA: 333 ± 129 µM
  FCBGA: 49 ± 15 µM
  CBGA/FCBGA: 6.8

B3: MPT21.9 (protein)
chain: MSDNSIATKILNFGHTCWKLQRPYVVKGMISIACGLFGKELLHNTNLISWGLMWKAFFALVPILSFNFFASIMNQIYDVDIDRINKPDLPLVSGEMSIETAWILSIIVALTGLIVTIKLKSAPLFVFIYIFGIFAGFAYSVPPIRWKQNPSTNFLITISSHVGLAFTSYYASRAALGLPFELRPSFTFLLAFMTVMGMTIAFAKDISDIEGDAKYGVSTVATKLGARNMTFVVSGVLLLNYVAAILAGIIWPQAFNSNVMLLSHAILAFCLIFQTRELALANYASAPSRQFFEFIWLLYYAEYFVYVFI
modifications: MPT21.9 (recombinant membrane-bound prenyltransferase)
Olivetolic acid [3]
  activity towards CBGA formation: improved activity towards CBGA formation

B4: MPT21.2 (protein)
chain: MSDNSIATKILNFGHTCWKLQRPMVVKGMISIACGLFGKELLHNTNLISWGLMWKAFFALVPILSFNFFAAIMNQIYDVDIDRINKPDLPLVSGEMSIETAWILSIIVALTGLIVTIKLKSAPLFVFIYIFGIFAGFAYSVPPIRWKQNPSTNFLITISSHVGLAFTSYYASRAALGLPFELRPSFTFLLAFMTVMGMTIAFAKDISDIEGDAKYGVSTVATKLGARNMTFVVSGVLLLNYVAAILAGIIWPQAFNSNVMLLSHAILAFCLIFQTRELALANYASAPSRQFFEFIWLLYYAEYFVYVFI
modifications: MPT21.2 (recombinant membrane-bound prenyltransferase)
Olivetolic acid [3]
  ratio of CBGA/FCBGA: improved ratio of CBGA/FCBGA

B5: MPT21.18 (protein)
chain: MSDNSIATKILNFGHTCWKLQRPYVVKGMISIACGLFGKELLHNTNLISWGLMWKAFFALVPILSFNFFAAIMNQIYDVDIDRINKPDLPLVSGEMSIETAWILSIIVALTGLIVTIKLKSAPLFVFIYIFGIFAGFAYSVPPIRWKQNPSTNFLITISSHVGLAFTSYYASRAALGLPFELRPSFTFLLAFMTVMGMTIAFAKDISDIEGDAKYGVSTVATKLGARNMTFVVSGVLLLNYVAAILAGIIWPQAFNSNVMLLSHAILAFCLIFQARELALANYASAPSRQFFEFIWLLYYAEYFVYVFI
modifications: MPT21.18 (recombinant membrane-bound prenyltransferase)
Olivetolic acid [3]
  activity towards CBGA formation: improved activity towards CBGA formation

B6: GPS1.1-F10-MPT4: fusion protein, SEQ ID NO: 19 (protein)
chain: MSKAKFESVFPRISEELVQLLRDEGLPQDAVQWFSDSLQYNCVGGKLNRGLSVVDTYQLLTGKKELDDEEYYRLALLGWLIELLQAFWLVSDDIMDESKTRRGQPCWYLKPKVGMIAIWDAFMLESGIYILLKKHFRQEKYYIDLVELFHDISFKTELGQLVDLLTAPEDEVDLNRFSLDKHSFIVRYKTAYYSFYLPVVLAMYVAGITNPKDLQQAMDVLIPLGEYFQVQDDYLDNFGDPEFIGKIGTDIQDNKCSWLVNKALQKATPEQRQILEDNYGVKDKSKELVIKKLYDDMKIEQDYLDYEEEVVGDIKKKIEQVDESRGFKKEVLNAFLAKIYKRQKGGAEAAAKEAAAKAAEAAAKEAAAKAAEAAAKEAAAKAAEAAAKEAAAKAGGMSDNSIATKILNFGHTCWKLQRPYVVKGMISIACGLFGRELFNNRHLFSWGLMWKAFFALVPILSFNFFAAIMNQIYDVDIDRINKPDLPLVSGEMSIETAWILSIIVALTGLIVTIKLKSAPLFVFIYIFGIFAGFAYSVPPIRWKQYPFTNFLITISSHVGLAFTSYSATTSALGLPFVWRPAFSFIIAFMTVMGMTIAFAKDISDIEGDAKYGVSTVATKLGARNMTFVVSGVLLLNYLVSISIGIIWPQVFKSNIMILSHAILAFCLIFQTRELALANYASAPSRQFFEFIWLLYYAEYFVYVFI
modifications: GPS1.1-F10-MPT4, geranyl diphosphate synthase, membrane-bound prenyltransferase fusion protein
Olivetolic acid [2]
  CBGA: 350 ± 17 µM
  FCBGA: 54 ± 1 µM
  CBGA/FCBGA: 6.5
